For series [1], the system named is CC(C)(COP(=O)(O)OP(=O)(O)OC[C@H]1O[C@@H](n2cnc3c(N)ncnc32)[C@H](O)[C@@H]1OP(=O)(O)O)[C@@H](O)C(=O)NCCC(=O)NCCSC(=O)CCCO. Put plainly: 4-hydroxybutyryl-CoA dehydratase (Msed_1321), coupled spectrophotometric assay. The format is biochemical, Metallosphaera sedula. As to conditions: other: Msed_1321, 70° C. The text has this:
A polypeptide having 4-hydroxybutyryl-CoA dehydratase activity means the polypeptide catalyzes the conversion of 4-hydroxybutyryl-CoA to crotonyl-CoA. The 4-hydroxybutyryl-CoA dehydratase activity of a polypeptide may be determined by routine methods known in the art. An example of such a polypeptide includes an amino acid sequence encoded by coding sequence Msed_1321 of Genbank accession NC_009440 and disclosed at SEQ ID NO:15.
Heterologous expression of M. sedula genes in E. coli. Msed_0406, Msed_1321, Msed_0399, and Msed_0656 were amplified from genomic DNA using primers from IDT Technologies (Coralville, Iowa). Msed_0406 was cloned into pET46-Ek/LIC with an N-terminal His6 tag, as described in Example 1. Msed_1321 was cloned with an N-terminal His6 tag into a modified pETA vector, into which the anaerobic hya promoter from E. coli had been inserted to allow for anaerobically-regulated expression (Sun et al., 2010. PLoS One 5:e10526). Msed_0399 was cloned into pET21b without a His-tag, and Msed_0656 was cloned into pCDF-Ek/LIC with an N-terminal His6 tag. All four constructs were individually cloned into NovaBlue GigaSingles E. coli competent cells and selected by growth on LB-agar supplemented with antibiotic. Sequences were confirmed by Eton Biosciences, Inc. (Durham, N.C.). Next, the plasmids were transformed into E. coli Rosetta 2 (DE3) cells for protein expression. Rosetta strains containing pET46-0406, pET21b-0399, and pCDF-0656 were grown and expressed aerobically at 37° C. for 16 h in Studier's auto-inducing medium ZYM-5052 (Studier, 2005. Protein Expression and Purification 41:207-234). Rosetta cells containing pETA-1321 plasmid were grown in a 2 L Applikon bioreactor (37° C., 800 rpm, pH 6.7, 0.5 slpm air) in Studier's non-inducing medium ZYM-505 with 0.5 mM FeCl3. […]
4-hydroxybutyryl-CoA dehydratase (Msed_1321). […] Enzyme activity was measured […] in a coupled spectrophotometric assay at 70° C. […]

The conditions of series [2]: 70° C and 1 atm; cited from earlier work.
Another series concerns O=C(O)CCCO. Put plainly: acyl-CoA ligase activity of mutant Msed_1353-G424, discontinuous DTNB assay. The format is biochemical, Metallosphaera sedula. The conditions noted are these: other: Msed_1353-G424, 75° C., pH 7.9. The text has this:
In one embodiment, an example of a polypeptide having 4-hydroxybutyrate:CoA ligase activity is an amino acid sequence encoded by coding sequence Msed_1353 of Genbank accession NC_009440 and disclosed at SEQ ID NO:18, provided that the amino acid at residue 424 is not the tryptophan present in a wild type Msed_1353. In one embodiment, the amino acid at residue 424 is alanine, valine, leucine, isoleucine, or glycine. In one embodiment, the amino acid at residue 424 is alanine, valine, leucine, glycine. In one embodiment, the amino acid at residue 424 is glycine. The amino acid sequence disclosed at SEQ ID NO:18 includes the substitution of glycine for tryptophan. Another example is a polypeptide having structural similarity to the amino acid sequence SEQ ID NO:18, provided the amino acid at residue 424 is not tryptophan.
Two assays were used to measure ligase activity, one spectrophotometric and one using high-performance liquid chromatography (HPLC). A discontinuous assay was used to measure substrate-dependent disappearance of CoA at 75° C. The reaction mixture (600 μl) contained 100 mM MOPS-KOH (pH 7.9), 5 mM MgCl2, 2.5 mM ATP, 0.15 mM CoA, and purified enzyme. At each time point, 80 μl of reaction mixture was added to 80 μl cold 5,5′-dithiobis-(2-nitrobenzoic acid) (DTNB). A time point (0 min) was taken before heating. The reaction mixture was incubated for 2 min at 75° C., followed by addition of substrate. Additional time points were taken at 30, 60, 90, 120, and 180 sec after addition of substrate. Absorbance was measured at 412 nm to determine free CoA concentration, based on the concentration of 2-nitro-5-thiobenzoate dianion (NTB^2−) (ε412=14,150 M^−1 cm^−1) (Hawkins et al., 2011, ACS Catal. 1, 1043-1050, Riddles et al., 1983, Methods in Enzymology 91, 49-60). Enzymes were kinetically characterized by varying the concentration of the […] substrate from 0.05 mM to 12 mM, while the other substrate concentrations were held constant. Measurements for specific activity were taken under saturating substrate concentrations (10 mM). Formation of the CoA ester was also confirmed using HPLC (Waters). The reaction mixture (0.15 ml) contained 100 mM potassium phosphate (pH 7.9), 10 mM MgCl2, 2 mM ATP, 0.5 mM CoA, 10 mM substrate, and purified enzyme. The reaction was incubated for 3 min at 75° C., quenched with 15 μl 1M HCl, filtered with a 10 kDa spin column (Amicon YM-10) to remove the protein, and loaded onto a reversed-phase C18 silica-based column (Shodex C18-4E, 4.6×250 mm). The mobile phase was 50 mM sodium phosphate buffer (pH 6.7) with 2% methanol.
M. sedula genes encoding acyl-CoA synthetases were amplified from genomic DNA using primers synthesized by Integrated DNA Technologies (Coralville, Iowa). […]

Series [3] is described as follows: 4-hydroxybutyrate-CoA synthetase assay (DTNB; HPLC confirmation). It counts as biochemical. On the procedure:
A time point (0 min) was taken before heating.
The soluble, heat-treated lysate was loaded onto the column with binding buffer (50 mM sodium phosphate, 300 mM NaCl, 20 mM imidazole, pH 7.4) and the his-tagged enzyme removed with elution buffer (50 mM sodium phosphate, 300 mM NaCl, 500 mM imidazole, pH 7.4).

Substrate in series [4]: O=C(O)CCCO
Put plainly: purified protein, by the assay type.

Substrate in series [5]: CCCCC(=O)O
As to the kind of experiment: purified protein, by the assay type. The conditions noted are these: other: Msed_0406, 75° C., pH 7.9; 75.0 °C.

Substrate in series [6]: CC(=O)O
As to the kind of experiment: purified protein, by the assay type. The conditions noted are these: other: Msed_0406, 75° C., pH 7.9; 75.0 °C.

Substrate in series [7]: O=C(O)CCO
Put plainly: purified protein, by the assay type. As to conditions: other: Msed_0406, 75° C., pH 7.9; 75.0 °C.

Substrate in series [8]: CCCC(=O)O
Put plainly: purified protein, by the assay type. The conditions noted are these: other: Msed_0406, 75° C., pH 7.9; 75.0 °C.

Substrate in series [9]: CCC(=O)O
Put plainly: purified protein, by the assay type. The conditions noted are these: other: Msed_0406, 75° C., pH 7.9; 75.0 °C.

Series [10] is described as follows: CoA synthetase assay (DTNB), substrate propionate. The format is biochemical. The conditions noted are these: saturating substrate concentrations.
Setting [11] is: other: Msed_0406, 75° C., pH 7.9, 75.0 °C.

Converted amounts (≈) assume the structure as drawn.

For “Metallosphaera sedula 4-hydroxybutyryl-CoA dehydratase Msed_1321, SEQ ID NO:15, recombinant (Metallosphaera sedula DSM 5348)”, in series [1], the Km (usually the concentration of substrate that gives half-maximal velocity) worked out at 150 µM; the Vmax (commonly the top rate of the reaction or transport when substrate is in excess) was found to be 2.2 µmol/min/mg; the kcat (in general, the maximal rate divided by the concentration of active sites) was 2.1 s⁻¹.
Turning to `O=O` [oxygen], the solubility (as a rule, the dissolved amount per volume that the medium holds) in [2] is 600 µM (≈ 19.2 µg/mL).
Turning to “Metallosphaera sedula acetate/propionate synthetase Msed_1353 variant Msed_1353-G424 (Trp424 to Gly, W424G), SEQ ID NO:18 (Metallosphaera sedula DSM 5348; W424G)”, in the series with O=C(O)CCCO, the Michaelis-Menten constant (Km) came out at 1130 µM; the Vmax came to 2.3 µmol/min/mg; the kcat amounted to 2.5 s⁻¹; the kcat/Km (in general, the turnover number divided by the Michaelis constant) amounted to 2180 M⁻¹ s⁻¹.
With `[HH]` [hydrogen], the solubility in series [2] is 600 µM (≈ 1.21 µg/mL).

B1: Metallosphaera sedula acyl-CoA synthetase (4-hydroxybutyrate:CoA ligase) Msed_0406, SEQ ID NO:14, recombinant (Metallosphaera sedula DSM 5348) (protein)
chain: MVTVQDFFRKFIEFQNSPNEKSLQEIVKLVGQLDLRRFNWVRDVFEDIHVKERGSKTALIWRDINTGEEAKLSYHELSLMSNRVLSTLRKHGLKKGDVVYLMTKVHPMHWAVFLAVIKGGFVMVPSATNLTVAEMKYRFSDLKPSAIISDSLRASVMEEALGSLKVEKFLIDGKRETWNSLEDESSNAEPEDTRGEDVIINYFTSGTTGMPKRVIHTAVSYPVGSITTASIVGVRESDLHLNLSATGWAKFAWSSFFSPLLVGATVVGINYEGKLDTRRYLGEVENLGVTSFCAPPTAWRQFITLDLDQFRFERLRSVVSAGEPLNPEVIKIWKDKFNLTIRDFYGQTETTAMVGNFPFLKVKPGSMGKPHPLYDIRLLDDEGKEITKPYEVGHITVKLNPRPIGLFLGYSDEKKNMESFREGYYYTGDKAYFDEEGYFYFVGRGDDVIKTSDYRVGPFEVESALLEHPAVAEAAVVGVPDTVRWQLVKAYIVLKKGYMPSKELAEEIREKMKTLLSPYKVPRIIEFVDELPKTISGKIRRVELRKREEEKRKKGEVGQNEYVF
In the case of B1, the specific activity amounted to 1.8 µmol/min/mg in [3] (4HB, saturating substrate concentrations) and 15.1 µmol/min/mg in [10]. In series [3] (reversed-phase HPLC), the “production of 4HB-CoA from 4HB and CoA” value is “confirmed”. In series [3] (substrate 4HB), the “rate of ligation of CoA to 4HB” value was 1.69 µmol·min/mg. Further, the Km was 2000 µM in [4] (setting [11]); 1900 µM in series [4] (other: Msed_0406, text); 740 µM in series [5]; 2030 µM in [6]; 810 µM in series [7]; 320 µM in series [8]. The Km in series [9] came to 380 µM. For the same molecule, the maximum rate (Vmax) in [4] (setting [11]) was 1.7 µmol/min/mg; in series [5], 5.2 µmol/min/mg; in [6], 6 µmol/min/mg; in series [7], 2.4 µmol/min/mg; in series [8], 7.9 µmol/min/mg; in [9], 15.1 µmol/min/mg. Further, the kcat amounted to 1.8 s⁻¹ in series [4] (setting [11]); 5.6 s⁻¹ in series [5]; 6.4 s⁻¹ in [6]; 2.6 s⁻¹ in series [7]; 8.4 s⁻¹ in [8]; 16.2 s⁻¹ in series [9]. In addition, the kcat/Km is 910 M⁻¹ s⁻¹ in series [4] (setting [11]); 7500 M⁻¹ s⁻¹ in series [5]; 3200 M⁻¹ s⁻¹ in series [6]; 3200 M⁻¹ s⁻¹ in series [7]; 26000 M⁻¹ s⁻¹ in series [8]; 43000 M⁻¹ s⁻¹ in series [9].

The values are drawn from US10227617B2, “Sequestration of carbon dioxide with hydrogen to useful products” (UNIVERSITY OF GEORGIA RESEARCH FOUNDATION, INC., priority 2012, dated 2019).
